Assay results from patent US20180371083A1 (Merck Sharp & Dohme, published 2018).
Blank lines part the entries; values can stand above or below the binder they belong to.

Assays:
[1] = molecular target: T1, human TIGIT expressed on cells (CHO-K1 transfectants; Jurkat over-expressing human TIGIT) (human, UniProt Q495A1 25-244); experiment: cell-based or functional assay
T1 sequence: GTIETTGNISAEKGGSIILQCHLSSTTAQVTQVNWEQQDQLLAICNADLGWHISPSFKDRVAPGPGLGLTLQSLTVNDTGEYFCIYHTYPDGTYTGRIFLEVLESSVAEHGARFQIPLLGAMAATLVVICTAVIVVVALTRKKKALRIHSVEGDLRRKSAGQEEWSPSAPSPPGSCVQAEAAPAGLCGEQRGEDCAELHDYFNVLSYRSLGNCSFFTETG

[2] = molecular target: T2, human TIGIT-His protein (extracellular domain of human TIGIT fused to His tag) (human, UniProt Q495A1 25-141); experiment: SPR, Biacore T200; antibody captured on anti-mouse IgG, human TIGIT-His as analyte; 1:1 Langmuir fit
T2 construct: also called hTIGIT-His; hTIGIT-HIS
T2 sequence: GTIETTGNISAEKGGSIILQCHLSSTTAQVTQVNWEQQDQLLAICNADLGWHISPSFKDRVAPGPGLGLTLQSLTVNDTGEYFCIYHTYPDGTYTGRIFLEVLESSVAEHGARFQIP
Description: The kinetic binding activity of anti-human TIGIT antibodies 14D7 and 26B10 (made as described in Example 1) and of commercial antibody MBSA43 was measured by surface plasmon resonance using a Biacore T200 system (Biacore, GE Healthcare, Piscataway, N.J.). […] Mouse anti-human TIGIT clones, 14D7, 26B10 and MBSA43, were each injected over the immobilized anti-mouse surfaces at 1 μg/mL for a capture level of 40 RU. HBS-EP+ buffer (BR-1006-69) was used as the running buffer with a flow rate of 30 μL/min. Varying concentrations of human TIGIT-His protein, ranging from 0.29 nM to 40 nM, at a flow rate of 45 μL/min were injected over the antibody surfaces. Following each Mouse anti-human TIGIT injection cycle, the Series S CM5 chip surface was regenerated using one three-minute injection of 10 mM Glycine pH 1.7 at a flow rate of 10 μL/min.
Background subtraction binding sensorgrams were used for analyzing the rate constant of association (kₐ) and dissociation (kd), and the equilibrium dissociation constant KD. The resulting data sets were fitted with a 1:1 Langmuir Binding Model using the Biacore T200 evaluation software (version 2.0). Table 3 summarizes the affinities for the anti-human TIGIT antibodies to human TIGIT-His protein.

[3] = molecular target: T1, human TIGIT expressed on cells (CHO-K1 …); experiment: cell-based ELISA on CHO cells expressing human TIGIT (panel 'Binding to CHO-human TIGIT Cells')
[4] = molecular target: T3, cynomolgous/rhesus TIGIT expressed on CHO-K1 cells (cynomolgous monkey / rhesus monkey); experiment: cell-based ELISA on CHO cells expressing rhesus TIGIT (panel 'Binding to CHO-rhesus TIGIT Cells')
T3 construct: also called cyno/rhesus TIGIT; cyno/rhesus TIGIT-CHOK1 cells
T3 sequence (chain, as listed by the source): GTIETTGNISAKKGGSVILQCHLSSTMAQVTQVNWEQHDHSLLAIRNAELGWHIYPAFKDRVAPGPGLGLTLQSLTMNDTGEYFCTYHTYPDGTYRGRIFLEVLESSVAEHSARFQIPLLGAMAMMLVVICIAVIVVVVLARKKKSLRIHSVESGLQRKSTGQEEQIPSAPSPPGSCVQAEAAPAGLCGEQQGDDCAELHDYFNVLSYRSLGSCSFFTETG

[5] = molecular target: T1, human TIGIT expressed on cells (CHO-K1 …); experiment: cell-based ELISA blocking assay: binding of human CD155-huFc to CHO-hTIGIT cells in the presence of titrated antibody

EC50, rescue of IL-2 in hTIGIT-Jurkat / THP-1 co-culture with CD155-Fc or CD112-Fc [1]: 170 ng/mL
Kd [2]: 4.6 pM
EC50 (read off the curve) [3]: ~0.06 ng/mL
EC50 (read off the curve) [4]: ~0.06 ng/mL
IC50 (read off the curve) [5]: ~80000 ng/mL
B1: mouse anti-human TIGIT antibody 14D7 (clone MEB125.14D7) (antibody, V domains shown)
VH: EVKLEESGGGLVQPGGSMKLSCVASGFTFSGAWMDWVRQSPEKGLEWVAEIRTKVNNHATNYGESVKGRFTISRDDSKSSVYLQMNNLRAEDSGIYYCRGALYDGFYFDYWGQGTTLTVSS
VL: QIVLTQSPAIMSASPGEKVNLTCSASSSVSSGYLYWYQQKPGSSPKLWIYGTSTLASGVPARFSGSGSGTSYSLTISNMEAEDAASYFCHQWSSFPYTFGGGTKLEMK
notes: Mouse IgG1/kappa; also called 14D7 (mIgG1/K); MEB125.14D7.C1.C1

EC50, rescue of IL-2 in hTIGIT-Jurkat / THP-1 co-culture with CD155-Fc or CD112-Fc [1]: 190 ng/mL
Kd [2]: 140 pM
EC50 (read off the curve) [3]: ~0.05 ng/mL
EC50 (read off the curve) [4]: ~0.04 ng/mL
IC50 (read off the curve) [5]: ~50000 ng/mL
B2: mouse anti-human TIGIT antibody 26B10 (clone MEB125.26B10) (antibody, V domains shown)
VH: EVQLQQSGPELVKPGASVKISCKTSGYTFTEFTMHWVKQSHGKSLEWIGGLKPDNGGISYNQKFKGRATLAVDKSSNTAYMELRSLTSEDSAVYYCARGAYYRYDADYWGQGTTLTVSS
VL: DIVLTQSHKFMSTSVGDRVSITCKASQDVKTAVAWYQQKSGQSPKLLIYSASYRNTGVPDRFTGSGSGTDFTFTIDSVQAEDLAVYFCQQHYSTPFTFGTGTKLELK
notes: Mouse IgG1/kappa; also called 26B10 (mIgG1/K)
